{"source": "IntAct's records for PubMed 25727097", "parents": {"B1": {"name": "5-hydroxytryptamine receptor 2C (Homo sapiens), P28335-1 (parent)", "chain": "MVNLRNAVHSFLVHLIGLLVWQSDISVSPVAAIVTDIFNTSDGGRFKFPDGVQNWPALSIVIIIIMTIGGNILVIMAVSMEKKLHNATNYFLMSLAIADMLVGLLVMPLSLLAILYDYVWPLPRYLCPVWISLDVLFSTASIMHLCAISLDRYVAIRNPIEHSRFNSRTKAIMKIAIVWAISIGVSVPIPVIGLRDEEKVFVNNTTCVLNDPNFVLIGSFVAFFIPLTIMVITYCLTIYVLRRQALMLLHGHTEEPPGLSLDFLKCCKRNTAEEENSANPNQDQNARRRKKKERRPRGTMQAINNERKASKVLGIVFFVFLIMWCPFFITNILSVLCEKSCNQKLMEKLLNVFVWIGYVCSGINPLVYTLFNKIYRRAFSNYLRCNYKVEKKPPVRQIPRVAATALSGRELNVNIYRHTNEPVIEKASDNEPGIEMQVENLELPVNPSSVVSERISSV"}}, "data": [{"variants_of": "B1", "conditions": "with GHSR", "values": [{"variant": "MVNLRNAVHSFLVHLIGLLVWQSDISVSPVAAIVTDIFNTSDGGRFKFPDGVQNWPALSIVIIIIMTIGGNILVIMAVSMEKKLHNATNYFLMSLAIADMLVGLLVMPLSLLAILYDYVWPLPRYLCPVWISLDVLFSTASIMHLCAISLDRYVAVRSPVEHSRFNSRTKAIMKIAIVWAISIGVSVPIPVIGLRDEEKVFVNNTTCVLNDPNFVLIGSFVAFFIPLTIMVITYCLTIYVLRRQALMLLHGHTEEPPGLSLDFLKCCKRNTAEEENSANPNQDQNARRRKKKERRPRGTMQAINNERKASKVLGIVFFVFLIMWCPFFITNILSVLCEKSCNQKLMEKLLNVFVWIGYVCSGINPLVYTLFNKIYRRAFSNYLRCNYKVEKKPPVRQIPRVAATALSGRELNVNIYRHTNEPVIEKASDNEPGIEMQVENLELPVNPSSVVSERISSV", "note": "[I156V;N158S;I160V]", "effect of a mutation on the interaction": "increasing interaction strength"}]}]}
